Laboratory results reported in patent US20260193317A1, “COMBINATION THERAPY WITH ACTRIIB RECEPTOR VARIANTS AND GLP-1 AGONISTS” (35PHARMA Inc., priority 2023, published 2026).
Read-outs that look alike come from different tables or passages of the source. Values belong to the molecule of their own block, whether it stands above or below them.

Assays:
[1] = Co-formulation study of ectodomain-based traps with incretin mimetics (monomer content by SEC / RP-HPLC, integrity, stability); assay type: physicochemical; conditions: retatrutide formulations, 20 mM NaPO4, glycine, sucrose, histidine pH 7.5
Protocol: In each case, the following parameters were assessed: a) monomer content (size exclusion chromatography), b) activin A and GDF-8 neutralization (cell-based assays [CBAs]), c) activin A binding (ELISA), d) GLP-1 receptor binding (ELISA).
In each case, the following parameters were assessed: a) monomer content (size exclusion chromatography), b) activin A and GDF-8 neutralization (cell-based assays [CBAs]), and c) GLP-1 receptor activation (CBA).
Given that protein aggregation can be indicative of reduced conformational stability and decreased activity, Size-Exclusion Chromatography-High Performance Liquid Chromatography (SEC-HPLC) was used to determine the purity of each ActRIIB-ECD construct. This method measured the percentage of intact monomeric species as well as the presence of aggregates and/or degradation products.
In some instances, the method used to assess the purity of an agent was based on a reversed-phase high-performance liquid chromatography (RP-HPLC) setup with a C18 column. The mobile phases consisted of acetonitrile with 0.1% formic acid (organic phase) and water with 0.1% formic acid (aqueous phase). […] Formic acid anions form an ion pair with positively charged peptides, increasing their hydrophobicity and therefore their retention time. Detection was performed using a UV detector, at 280 nm.

[2] = target: GLP-1 receptor (GLP-1R) on CHO-K1 cells stably overexpressing GLP-1R (UniProt P43220); assay: cell-based or functional assay
[3] = target: T1, GIP receptor (GIPR) on CHO-K1 cells stably overexpressing GIPR (UniProt P48546); assay: cell-based or functional assay
T1 sequence (looked up): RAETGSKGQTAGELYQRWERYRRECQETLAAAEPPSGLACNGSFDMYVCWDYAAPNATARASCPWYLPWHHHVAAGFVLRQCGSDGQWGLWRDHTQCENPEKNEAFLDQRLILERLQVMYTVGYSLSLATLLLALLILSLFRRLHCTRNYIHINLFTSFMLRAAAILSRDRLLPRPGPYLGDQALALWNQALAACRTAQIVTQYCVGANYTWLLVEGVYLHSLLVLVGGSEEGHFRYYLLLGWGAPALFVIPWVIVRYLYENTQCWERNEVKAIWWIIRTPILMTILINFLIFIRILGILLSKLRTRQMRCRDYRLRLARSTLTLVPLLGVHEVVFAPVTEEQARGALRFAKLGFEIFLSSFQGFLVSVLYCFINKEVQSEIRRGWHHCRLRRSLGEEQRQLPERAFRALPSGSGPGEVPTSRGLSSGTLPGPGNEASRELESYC

[4] = target: GLP-1 receptor (GLP-1R) on CHO-K1 cells stably overexpressing GLP-1R (UniProt P43220); assay: cell-based or functional assay; remark: listed apart in the source
[5] = target: T1, GIP receptor (GIPR) on CHO-K1 cells stably overexpressing GIPR; assay: cell-based or functional assay; remark: listed apart in the source
DIO mice = assay: Body composition in high fat diet mice, alone and in combination with incretin mimetics; assay type: in vivo; conditions: for Fat mass (% change from baseline) / Lean mass (% change from baseline): as E44, NMR
Protocol: Experiments were performed in vivo to investigate the potential for additive or synergistic effects between exemplary ActRIIB-ECD polypeptide constructs and incretin mimetics.

Sequence of GLP-1 receptor (GLP-1R) on CHO-K1 cells stably overexpressing GLP-1R (P43220 24-463 limits assumed): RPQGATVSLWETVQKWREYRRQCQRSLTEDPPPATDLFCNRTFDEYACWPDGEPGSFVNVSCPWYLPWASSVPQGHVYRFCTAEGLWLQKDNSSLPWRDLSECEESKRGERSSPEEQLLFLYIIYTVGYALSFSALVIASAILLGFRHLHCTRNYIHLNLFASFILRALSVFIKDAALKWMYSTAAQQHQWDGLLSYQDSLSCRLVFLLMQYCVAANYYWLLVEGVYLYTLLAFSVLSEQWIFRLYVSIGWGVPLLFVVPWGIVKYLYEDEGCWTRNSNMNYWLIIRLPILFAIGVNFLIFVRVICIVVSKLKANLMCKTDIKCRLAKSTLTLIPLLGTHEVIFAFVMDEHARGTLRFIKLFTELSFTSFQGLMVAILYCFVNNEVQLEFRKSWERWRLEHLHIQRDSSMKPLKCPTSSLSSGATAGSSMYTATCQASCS

Molecule: CC[C@H](C)[C@H](NC(=O)[C@H](Cc1ccccc1)NC(=O)[C@H](C)NC(=O)C(C)(C)NC(=O)[C@H](CCC(N)=O)NC(=O)[C@H](C)NC(=O)[C@H](CCCCNC(=O)COCCOCCNC(=O)CC[C@H](NC(=O)CCCCCCCCCCCCCCCCCCC(=O)O)C(=O)O)NC(=O)[C@H](CCCCN)NC(=O)[C@H](CC(=O)O)NC(=O)[C@H](CC(C)C)NC(=O)[C@](C)(CC(C)C)NC(=O)[C@@H](NC(=O)[C@H](CO)NC(=O)[C@H](Cc1ccc(O)cc1)NC(=O)[C@H](CC(=O)O)NC(=O)[C@H](CO)NC(=O)[C@@H](NC(=O)[C@H](Cc1ccccc1)NC(=O)[C@@H](NC(=O)CNC(=O)[C@H](CCC(N)=O)NC(=O)C(C)(C)NC(=O)[C@@H](N)Cc1ccc(O)cc1)[C@@H](C)O)[C@@H](C)O)[C@@H](C)CC)C(=O)N[C@@H](CCC(=O)O)C(=O)N[C@@H](Cc1ccc(O)cc1)C(=O)N[C@@H](CC(C)C)C(=O)N[C@@H](CC(C)C)C(=O)N[C@@H](CCC(=O)O)C(=O)NCC(=O)NCC(=O)N1CCC[C@H]1C(=O)N[C@@H](CO)C(=O)N[C@@H](CO)C(=O)NCC(=O)N[C@@H](C)C(=O)N1CCC[C@H]1C(=O)N1CCC[C@H]1C(=O)N1CCC[C@H]1C(=O)N[C@@H](CO)C(N)=O [Retatrutide alone]
Monomer Content (%) Retatrutide ([1]; D 0): 100%
Monomer Content (%) Retatrutide ([1]; D 7, 2-8° C.): 100%
Monomer Content (%) Retatrutide ([1]; D 7, RT): 100%
Monomer Content (%) Retatrutide ([1]; D 14, 2-8° C.): 100%
Monomer Content (%) Retatrutide ([1]; D 14, RT): 100%
Monomer Content (%) Retatrutide ([1]; D 28, 2-8° C.): 100%
Monomer Content (%) Retatrutide ([1]; D 28, RT): 100%
Monomer Content (%) Retatrutide ([1]; D 56, 2-8° C.): 100%
Monomer Content (%) Retatrutide ([1]; D 56, RT): 100%

CBA potency GLP-1R; P1372 + retatrutide; D 0 [2]: 3 pM
CBA potency GLP-1R; P1372 + retatrutide; D 7 2-8°C [2]: 2 pM
CBA potency GLP-1R; P1372 + retatrutide; D 7 RT [2]: 1.8 pM
CBA potency GLP-1R; P1372 + retatrutide; D 14 2-8°C [2]: 4.1 pM
CBA potency GLP-1R; P1372 + retatrutide; D 14 RT [2]: 3.3 pM
CBA potency GLP-1R; P1372 + retatrutide; D 28 2-8°C [2]: 2.9 pM
CBA potency GLP-1R; P1372 + retatrutide; D 28 RT [2]: 2.1 pM
CBA potency GLP-1R; P1372 + retatrutide; D 56 2-8°C [2]: 2.3 pM
CBA potency GLP-1R; P1372 + retatrutide; D 56 RT [2]: 2.3 pM
CBA potency GLP-1R; Retatrutide alone; D 0 [2]: 3 pM
CBA potency GLP-1R; Retatrutide alone; D 7 2-8°C [2]: 1.8 pM
CBA potency GLP-1R; Retatrutide alone; D 7 RT [2]: 2.5 pM
CBA potency GLP-1R; Retatrutide alone; D 14 2-8°C [2]: 3.1 pM
CBA potency GLP-1R; Retatrutide alone; D 14 RT [2]: 5.6 pM
CBA potency GLP-1R; Retatrutide alone; D 28 2-8°C [2]: 2.7 pM
CBA potency GLP-1R; Retatrutide alone; D 28 RT [2]: 2.7 pM
CBA potency GLP-1R; Retatrutide alone; D 56 2-8°C [2]: 2.1 pM
CBA potency GLP-1R; Retatrutide alone; D 56 RT [2]: 1.9 pM
CBA potency GIPR; P1372 + retatrutide; D 0 [3]: 0.94 pM
CBA potency GIPR; P1372 + retatrutide; D 7 2-8°C [3]: 0.98 pM
CBA potency GIPR; P1372 + retatrutide; D 7 RT [3]: 0.98 pM
CBA potency GIPR; P1372 + retatrutide; D 14 2-8°C [3]: 1.1 pM
CBA potency GIPR; P1372 + retatrutide; D 14 RT [3]: 0.76 pM
CBA potency GIPR; P1372 + retatrutide; D 28 2-8°C [3]: 1 pM
CBA potency GIPR; P1372 + retatrutide; D 28 RT [3]: 0.84 pM
CBA potency GIPR; P1372 + retatrutide; D 56 2-8°C [3]: 0.85 pM
CBA potency GIPR; P1372 + retatrutide; D 56 RT [3]: 0.75 pM
CBA potency GIPR; Retatrutide alone; D 0 [3]: 0.74 pM
CBA potency GIPR; Retatrutide alone; D 7 2-8°C [3]: 1 pM
CBA potency GIPR; Retatrutide alone; D 7 RT [3]: 0.87 pM
CBA potency GIPR; Retatrutide alone; D 14 2-8°C [3]: 1 pM
CBA potency GIPR; Retatrutide alone; D 14 RT [3]: 1.2 pM
CBA potency GIPR; Retatrutide alone; D 28 2-8°C [3]: 1.1 pM
CBA potency GIPR; Retatrutide alone; D 28 RT [3]: 1.1 pM
CBA potency GIPR; Retatrutide alone; D 56 2-8°C [3]: 0.84 pM
CBA potency GIPR; Retatrutide alone; D 56 RT [3]: 0.82 pM
Molecule: retatrutide (peptide)

Molecule: tirzepatide (peptide)
CBA potency GLP-1R; P1372 + tirzepatide; D 0 [4]: 5.3 pM
CBA potency GLP-1R; P1372 + tirzepatide; D 7 2-8°C [4]: 3.2 pM
CBA potency GLP-1R; P1372 + tirzepatide; D 7 RT [4]: 3.3 pM
CBA potency GLP-1R; P1372 + tirzepatide; D 14 2-8°C [4]: 2.9 pM
CBA potency GLP-1R; P1372 + tirzepatide; D 14 RT [4]: 2.8 pM
CBA potency GLP-1R; P1372 + tirzepatide; D 28 2-8°C [4]: 5.5 pM
CBA potency GLP-1R; P1372 + tirzepatide; D 28 RT [4]: 5.4 pM
CBA potency GLP-1R; P1372 + tirzepatide; D 56 2-8°C [4]: 9.3 pM
CBA potency GLP-1R; P1372 + tirzepatide; D 56 RT [4]: 10 pM
CBA potency GLP-1R; Tirzepatide alone; D 0 [4]: 4.3 pM
CBA potency GLP-1R; Tirzepatide alone; D 7 2-8°C [4]: 4.6 pM
CBA potency GLP-1R; Tirzepatide alone; D 7 RT [4]: 3.7 pM
CBA potency GLP-1R; Tirzepatide alone; D 14 2-8°C [4]: 2.4 pM
CBA potency GLP-1R; Tirzepatide alone; D 14 RT [4]: 3.3 pM
CBA potency GLP-1R; Tirzepatide alone; D 28 2-8°C [4]: 5.6 pM
CBA potency GLP-1R; Tirzepatide alone; D 28 RT [4]: 5 pM
CBA potency GLP-1R; Tirzepatide alone; D 56 2-8°C [4]: 8.3 pM
CBA potency GLP-1R; Tirzepatide alone; D 56 RT [4]: 8.4 pM
CBA potency GIPR; P1372 + tirzepatide; D 0 [5]: 1.3 pM
CBA potency GIPR; P1372 + tirzepatide; D 7 2-8°C [5]: 1 pM
CBA potency GIPR; P1372 + tirzepatide; D 7 RT [5]: 0.99 pM
CBA potency GIPR; P1372 + tirzepatide; D 14 2-8°C [5]: 0.98 pM
CBA potency GIPR; P1372 + tirzepatide; D 14 RT [5]: 1 pM
CBA potency GIPR; P1372 + tirzepatide; D 28 2-8°C [5]: 1.3 pM
CBA potency GIPR; P1372 + tirzepatide; D 28 RT [5]: 1.5 pM
CBA potency GIPR; P1372 + tirzepatide; D 56 2-8°C [5]: 1.9 pM
CBA potency GIPR; Tirzepatide alone; D 0 [5]: 1.5 pM
CBA potency GIPR; Tirzepatide alone; D 7 2-8°C [5]: 1.1 pM
CBA potency GIPR; Tirzepatide alone; D 7 RT [5]: 1.2 pM
CBA potency GIPR; Tirzepatide alone; D 14 2-8°C [5]: 0.84 pM
CBA potency GIPR; Tirzepatide alone; D 14 RT [5]: 0.82 pM
CBA potency GIPR; Tirzepatide alone; D 28 2-8°C [5]: 1.6 pM
CBA potency GIPR; Tirzepatide alone; D 28 RT [5]: 1.4 pM
CBA potency GIPR; Tirzepatide alone; D 56 2-8°C [5]: 1.9 pM
CBA potency GIPR; Tirzepatide alone; D 56 RT [5]: 2 pM
CBA potency GLP-1R; P1372 + tirzepatide; D 0 [2]: 9.3 pM
CBA potency GLP-1R; P1372 + tirzepatide; D 7 2-8°C [2]: 13 pM
CBA potency GLP-1R; P1372 + tirzepatide; D 7 RT [2]: 12 pM
CBA potency GLP-1R; P1372 + tirzepatide; D 14 RT [2]: 13 pM
CBA potency GLP-1R; P1372 + tirzepatide; D 28 2-8°C [2]: 14 pM
CBA potency GLP-1R; P1372 + tirzepatide; D 28 RT [2]: 13 pM
CBA potency GLP-1R; P1372 + tirzepatide; D 56 2-8°C [2]: 7.4 pM
CBA potency GLP-1R; P1372 + tirzepatide; D 56 RT [2]: 7.7 pM
CBA potency GLP-1R; Tirzepatide alone; D 0 [2]: 11 pM
CBA potency GLP-1R; Tirzepatide alone; D 7 2-8°C [2]: 11 pM
CBA potency GLP-1R; Tirzepatide alone; D 7 RT [2]: 13 pM
CBA potency GLP-1R; Tirzepatide alone; D 14 2-8°C [2]: 17 pM
CBA potency GLP-1R; Tirzepatide alone; D 14 RT [2]: 23 pM
CBA potency GLP-1R; Tirzepatide alone; D 28 2-8°C [2]: 14 pM
CBA potency GLP-1R; Tirzepatide alone; D 28 RT [2]: 12 pM
CBA potency GLP-1R; Tirzepatide alone; D 56 2-8°C [2]: 7 pM
CBA potency GLP-1R; Tirzepatide alone; D 56 RT [2]: 6.7 pM
CBA potency GIPR; P1372 + tirzepatide; D 0 [3]: 1.5 pM
CBA potency GIPR; P1372 + tirzepatide; D 7 2-8°C [3]: 1.7 pM
CBA potency GIPR; P1372 + tirzepatide; D 7 RT [3]: 2.1 pM
CBA potency GIPR; P1372 + tirzepatide; D 14 2-8°C [3]: 1.5 pM
CBA potency GIPR; P1372 + tirzepatide; D 14 RT [3]: 1.8 pM
CBA potency GIPR; P1372 + tirzepatide; D 28 2-8°C [3]: 2 pM
CBA potency GIPR; P1372 + tirzepatide; D 28 RT [3]: 2.8 pM
CBA potency GIPR; P1372 + tirzepatide; D 56 2-8°C [3]: 1.6 pM
CBA potency GIPR; P1372 + tirzepatide; D 56 RT [3]: 1.7 pM
CBA potency GIPR; Tirzepatide alone; D 0 [3]: 1.6 pM
CBA potency GIPR; Tirzepatide alone; D 7 2-8°C [3]: 2.8 pM
CBA potency GIPR; Tirzepatide alone; D 7 RT [3]: 2.8 pM
CBA potency GIPR; Tirzepatide alone; D 14 2-8°C [3]: 2.2 pM
CBA potency GIPR; Tirzepatide alone; D 14 RT [3]: 1.7 pM
CBA potency GIPR; Tirzepatide alone; D 28 2-8°C [3]: 2.2 pM
CBA potency GIPR; Tirzepatide alone; D 28 RT [3]: 2.1 pM
CBA potency GIPR; Tirzepatide alone; D 56 2-8°C [3]: 1.5 pM
CBA potency GIPR; Tirzepatide alone; D 56 RT [3]: 1.5 pM

Molecule: tirzepatide [reference compound]
Body weight (% change from baseline) (DIO mice; DIO mice, 21 days s.c., P1307 20 mg/kg weekly, P1229 40 mg/kg twice weekly, semaglutide 40 μg/kg daily, tirzepatide 45 μg/kg daily, alone or combined): −26.8%
visceral, epididymal, pericardial, peri-renal, and retroperitoneal white adipose tissue weights (DIO mice; DIO mice, D21): significantly decreased all white adipose tissue weights
gastrocnemius and tibialis anterior weights (DIO mice; DIO mice, D21, P1229 with or without caloric restriction): no significant effect on muscle weights
Fat mass (% change from baseline) (DIO mice): −46.2%
Lean mass (% change from baseline) (DIO mice): −14.5%
Fat mass (% change from baseline) (DIO mice; listed as tirzepatide): −46.2%
Lean mass (% change from baseline) (DIO mice; listed as tirzepatide): −14.5%
